Experimental data from patent publication US20200247886A1 (ZLIP, published 2020).
Blank lines part the entries; values can stand above or below the binder they belong to.

Experiments:
[1] = target: T1, CD47 protein (construct not stated; SPR antigen, CD47 coated ELISA plates) (Homo sapiens (Human), UniProt Q08722 19-139, limits assumed); assay: SPR (Biacore T100), affinity (nM) as grade; legend -: >40 nM
T1 construct: also called the antigen

[2] = target: T2, human CD47 expressed on cells (CD47 expressing CHO cells, Jurkat, HL60, DLD1, Raji) (human, UniProt Q08722 19-292); assay: EC50 (nM) as grade, binding on Jurkat cells; legend +++: >0.05 nM and <1 nM
T2 construct: also called CHO-CD47; IAP

[3] = target: T2, human CD47 expressed on cells (CD47 …); assay: EC50 (nM) as grade, binding on CHO-CD47 cells; legend +++: >0.05 nM and <1 nM
CHO/mCD47-GFP = target: T3, CHO/mCD47-GFP (mouse, UniProt Q61735); assay: flow cytometry on CHO cells expressing mouse CD47-GFP, binding percentage
T3 construct: on the cell surface; also called mouse CD47 expressed on CHO cells; CHO cell expressing mouse CD47
T3 sequence (receptor, looked up): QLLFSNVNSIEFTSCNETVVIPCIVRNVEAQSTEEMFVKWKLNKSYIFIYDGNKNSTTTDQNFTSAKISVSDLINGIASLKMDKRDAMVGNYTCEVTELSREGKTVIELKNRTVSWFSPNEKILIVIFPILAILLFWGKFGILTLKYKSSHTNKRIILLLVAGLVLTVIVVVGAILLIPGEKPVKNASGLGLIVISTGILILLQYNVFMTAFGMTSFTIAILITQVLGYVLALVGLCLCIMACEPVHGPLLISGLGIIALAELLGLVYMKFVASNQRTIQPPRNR

[4] = target: T2, human CD47 expressed on cells (CD47 …); assay: flow cytometry on human red blood cells, donor 2, MFI; EC50 (nM) table beside the legend
[5] = target: T4, human CD47-Fc protein (Novoprotein, Cat#CG18) (human, UniProt Q08722 19-139); assay: IC50 (nM) as grade, blocking of soluble CD47 binding to SIRPα-expressing CHO cells; legend ++: >1 nM and <10 nM
T4 construct: Bought protein; also called CD47-hFc; hCD47-hFc fusion protein; not shown: human IgG Fc of the bought fusion protein

[6] = target: T2, human CD47 expressed on cells (CD47 …); assay: flow cytometry on DLD1 cells, IgG, MFI
[7] = target: T2, human CD47 expressed on cells (CD47 …); assay: flow cytometry on DLD1 cells, IgG, frequency
[8] = target: T2, human CD47 expressed on cells (CD47 …); assay: flow cytometry on human platelets, donor 2, MFI
[9] = target: T2, human CD47 expressed on cells (CD47 …); assay: IC50 as grade, SIRPα blocking on Raji cells; legend +++: <1 nM
[10] = target: T2, human CD47 expressed on cells (CD47 …); assay: flow cytometry on CD47 expressing CHO cells, MFI (FL-4)
[11] = target: T2, human CD47 expressed on cells (CD47 …); assay: flow cytometry on human red blood cells, donor 1, MFI
[12] = target: T2, human CD47 expressed on cells (CD47 …); assay: flow cytometry on human red blood cells, donor 2, MFI
[13] = target: T2, human CD47 expressed on cells (CD47 …); assay: flow cytometry SIRP-alpha blocking assay on Raji cells, MFI
[14] = target: T2, human CD47 expressed on cells (CD47 …); assay: flow cytometry blocking assay on Raji cells, SIRPα is the blocked ligand, MFI
[15] = target: T2, human CD47 expressed on cells (CD47 …); assay: as above; remark: listed apart in the source
[16] = target: T2, human CD47 expressed on cells (CD47 …); assay: IC50 as grade, SIRPα blocking on Raji cells (second part of the table); legend +++: <1 nM
His-tagged CD47 [17] = target: T5, His-tagged CD47 (Homo sapiens (Human), UniProt Q08722 19-139, limits assumed); assay: IC50 (nM) MFI as grade, blocking His-tagged CD47 binding to SIRPα-CHO cells; legend +: >2.7 nM
T5 construct: not shown: His tag

[18] = target: T2, human CD47 expressed on cells (CD47 …); assay: IC50 (nM) MFI as grade, blocking biotinylated SIRPa-Fc binding to DLD1 cells; legend +++: <1 nM
His-tagged CD47 [19] = target: T5, His-tagged CD47; assay: IC50 (nM) Frequency as grade, blocking His-tagged CD47 binding to SIRPα-CHO cells; legend +: >2.7 nM
[20] = target: T2, human CD47 expressed on cells (CD47 …); assay: IC50 (nM) Frequency as grade, blocking biotinylated SIRPa-Fc binding to DLD1 cells; legend ++: >1 nM and <20 nM
[21] = target: T2, human CD47 expressed on cells (CD47 …); assay: flow cytometry blocking assay: 100 nM biotinylated SIRPa-Fc (blocked ligand) on DLD1 cells expressing CD47, MFI
[22] = target: T2, human CD47 expressed on cells (CD47 …); assay: flow cytometry blocking assay: 100 nM biotinylated SIRPa-Fc (blocked ligand) on DLD1 cells expressing CD47, frequency
[23] = target: T6, biotin labelled polyhistidine tagged CD47 protein (Novoprotein, Cat#321) (human, UniProt Q08722 19-139, biotin labelled (site not stated)); assay: flow cytometry blocking assay: antibody mixed with biotinylated human CD47 protein; blocked ligand SIRPα on cells; binding percentage
T6 construct: Bought protein; also called biotinylated CD47; biotinylated human CD47 protein; not shown: polyhistidine tag

His-tagged CD47 [24] = target: T5, His-tagged CD47; assay: flow cytometry blocking assay: His-tagged CD47 with Fab on SIRPα-expressing CHO cells (SIRPα is the blocked ligand), anti-His-APC, MFI
His-tagged CD47 [25] = target: T5, His-tagged CD47; assay: flow cytometry blocking assay: His-tagged CD47 with Fab on SIRPα-expressing CHO cells (SIRPα is the blocked ligand), anti-His-APC, frequency
[26] = target: T2, human CD47 expressed on cells (CD47 …); assay: EC50 (nM) as grade, binding on CHO-CD47 cells; legend ++++: <0.05 nM
[27] = target: T1, CD47 protein (construct not stated; SPR …); assay: SPR (Biacore T100), affinity (nM) as grade; legend +: >10 nM and <40 nM
[28] = target: T4, human CD47-Fc protein (Novoprotein, …); assay: IC50 (nM) as grade, neutralizing ELISA, CD47-hFc on SIRPα coated plate; legend +++: >8 nM and <15 nM
[29] = target: T4, human CD47-Fc protein (Novoprotein, …); assay: IC50 (nM) as grade, blocking of soluble CD47 binding to SIRPα-expressing CHO cells; legend +++: >0.05 nM and <1 nM

- Kd [1]: > 40 nM
- EC50 [2]: 0.05 to 1 nM
- EC50 [3]: 0.05 to 1 nM
- binding result (CHO/mCD47-GFP): no binding (tested: about 0.4 ug/ml)
- EC50 [4]: 0.12 nM
- IC50 [5]: 1 to 10 nM
B1: ABU1 (antibody, V domains shown)
VH: EVKLVESGGGLVQPGGSRKLSCAASGFTFSDYGMAWVRQAPGKGPECVAFISNLAKRIYYVDTVTGRFTISRENAKNTLYLEMSSLRSEDTAMYYCTRAYRYALDYWGQGTTLTVSS
VL: QIVLTQSPAIMSASPGEKVTMTCSASSSVSYMNWYQQKSGTSPKRWIYDTSKLASGVPARFSGSGSGTSYSLTISSMEAEDAATYYCQQWNSNPPTFGTGTKLELK
notes: Murine hybridoma monoclonal antibody

- EC50 (read off the curve) [6]: ~0.6 nM
- EC50 (read off the curve) [7]: ~0.07 nM
- EC50 (read off the curve) [8]: ~0.6 nM
- IC50 [9]: < 1 nM
- EC50 (read off the curve) [10]: ~1 nM
- EC50 (read off the curve) [11]: ~1 nM
- EC50 (read off the curve) [12]: ~1 nM
- IC50 (read off the curve) [13]: ~0.6 nM
- IC50 (read off the curve) [14]: ~0.6 nM
- IC50 (read off the curve) [15]: ~0.9 nM
- IC50 [16]: < 1 nM
- IC50 (His-tagged CD47 [17]): > 2.7 nM
- IC50 [18]: < 1 nM
- IC50 (His-tagged CD47 [19]): > 2.7 nM
- IC50 [20]: 1 to 20 nM
- IC50 (read off the curve) [21]: ~0.3 nM
- IC50 (read off the curve) [22]: ~1 nM
- IC50 (read off the curve) [23]: ~1 nM
- IC50 (read off the curve) (His-tagged CD47 [24]): ~3 nM
- IC50 (read off the curve) (His-tagged CD47 [25]): ~3 nM
B2: Positive 3 (analogue antibody) (antibody, V domains shown)
VH: QMQLVQSGAEVKKTGSSVKVSCKASGFNIKDYYLHWVRQAPGQALEWMGWIDPDQGDTEYAQKFQDRVTITRDRSMSTAYMELSSLRSEDTAMYYCNAAYGSSSYPMDYWGQGTTVTV
VL: NIQMTQSPSAMSASVGDRVTITCKASQDIHRYLSWFQQKPGKVPKHLIYRANRLVSGVPSRFSGSGSGTEFTLTISSLQPEDFATYYCLQYDEFPYTFGGGTKVEIK

- EC50 [26]: < 0.05 nM
- Affinity by SPR [27]: 10 to 40 nM
- EC50 [2]: 0.05 to 1 nM
- binding result (CHO/mCD47-GFP): no binding (tested: about 0.4 ug/ml)
- EC50 [4]: 0.34 nM
- IC50 [28]: 8 to 15 nM
- IC50 [29]: 0.05 to 1 nM
B3: ABU4 (antibody, V domains shown)
VH: QVQLQQSGPQLVRPGASVKISCKTSGYSFTNYWMQWVKQRPGQGLEWIGMIDPSDSESRLNQKFKDKATLTVDKSSSTAYMQLSSPTFEDSAVYYCARRGSPMITSFAYWGQGTLVTVSA
VL: DVQITQSPSFLAASPGETITINCRASKNIGKYLAWFQEKPGKTNKLLIYSGSTLQSGIPSRFSGSGSGTDFTLTISSLEPEDFAIYYCQQHNEYPYTFGGGTKLEIK
notes: as for B1
